Experimental data reported in paper PMC9482650, “Quantitative fragmentomics allow affinity mapping of interactomes” (Nature Communications, 2022).

T1: MPDZ_12, O75970
T1 sequence (O75970 1857-1958, limits assumed, looked up): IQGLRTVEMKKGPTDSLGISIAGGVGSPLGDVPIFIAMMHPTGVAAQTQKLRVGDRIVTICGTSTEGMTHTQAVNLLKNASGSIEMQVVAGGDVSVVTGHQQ

T2: PDZRN3_1, Q9UPQ7
T2 sequence (Q9UPQ7 244-349, limits assumed, looked up): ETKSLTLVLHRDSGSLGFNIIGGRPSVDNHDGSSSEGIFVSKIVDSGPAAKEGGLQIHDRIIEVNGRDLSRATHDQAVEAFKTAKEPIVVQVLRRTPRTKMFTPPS

T3: LIN7B, Q9HAP6
T3 sequence (Q9HAP6 88-185, limits assumed, looked up): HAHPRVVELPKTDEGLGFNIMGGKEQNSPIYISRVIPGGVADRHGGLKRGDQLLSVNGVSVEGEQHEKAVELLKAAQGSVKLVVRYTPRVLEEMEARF

T4: MPDZ_10, O75970
T4 sequence (O75970 1624-1722, limits assumed, looked up): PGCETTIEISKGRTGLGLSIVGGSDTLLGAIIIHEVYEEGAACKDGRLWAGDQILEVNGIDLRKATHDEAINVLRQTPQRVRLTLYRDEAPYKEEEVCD

T5: MPDZ_5, O75970
T5 sequence (O75970 695-796, limits assumed, looked up): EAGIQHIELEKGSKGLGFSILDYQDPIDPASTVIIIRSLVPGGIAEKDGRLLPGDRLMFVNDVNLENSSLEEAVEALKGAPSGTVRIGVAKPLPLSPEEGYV

T6: RAPGEF6, Q8TEU7
T6 sequence (Q8TEU7 525-625, limits assumed, looked up): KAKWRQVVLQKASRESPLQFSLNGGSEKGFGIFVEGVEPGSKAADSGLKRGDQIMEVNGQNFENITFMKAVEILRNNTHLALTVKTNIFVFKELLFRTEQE

T7: DLG3_2, Q92796
T7 sequence (Q92796 221-321, limits assumed, looked up): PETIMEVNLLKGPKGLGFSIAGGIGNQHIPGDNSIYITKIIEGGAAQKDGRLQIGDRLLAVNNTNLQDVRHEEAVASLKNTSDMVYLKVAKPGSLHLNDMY

T8: SIPA1L2, Q9P2F8
T8 sequence (Q9P2F8 945-1036, limits assumed, looked up): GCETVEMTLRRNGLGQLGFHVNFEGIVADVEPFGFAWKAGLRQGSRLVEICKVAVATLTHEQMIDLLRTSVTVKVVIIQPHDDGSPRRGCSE

T9: DLG3_1, Q92796
T9 sequence (Q92796 125-227, limits assumed, looked up): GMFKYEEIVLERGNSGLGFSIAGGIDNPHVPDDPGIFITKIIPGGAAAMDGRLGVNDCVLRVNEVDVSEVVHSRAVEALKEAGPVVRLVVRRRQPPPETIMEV

T10: SNTG2, Q9NY99
T10 sequence (Q9NY99 68-166, limits assumed, looked up): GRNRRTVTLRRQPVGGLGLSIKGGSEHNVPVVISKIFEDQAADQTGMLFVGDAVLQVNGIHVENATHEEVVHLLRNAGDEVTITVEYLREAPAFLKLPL

T11: NHERF3_3, Q5T2W1
T11 sequence (Q5T2W1 238-333, limits assumed, looked up): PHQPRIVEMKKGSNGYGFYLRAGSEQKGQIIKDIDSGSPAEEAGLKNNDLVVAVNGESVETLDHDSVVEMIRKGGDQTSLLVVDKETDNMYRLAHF

T12: DFNB31_1, Q9P202
T12 sequence (Q9P202 135-233, limits assumed, looked up): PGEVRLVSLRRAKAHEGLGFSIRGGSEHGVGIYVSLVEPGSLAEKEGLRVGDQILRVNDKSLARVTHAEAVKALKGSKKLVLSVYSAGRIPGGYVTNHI


biological target: GRID2IP_1, A4D2P6; experiment: holdup assay; parameters: key: below the threshold = too weak to quantify, mostly under pKd 3.1 to 4; settings: plain residues with an end cap or a label only (N-terminal biotin on a linker: ado-ado)
Sequence (A4D2P6 1-87): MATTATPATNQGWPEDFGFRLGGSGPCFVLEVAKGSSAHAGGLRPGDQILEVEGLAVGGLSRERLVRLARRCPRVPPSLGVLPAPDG

| Binder | pKd |
| --- | --- |
| ARSAAASNYV [CLDN4, O14493] | below the threshold |

biological target: T1, MPDZ_12, O75970; experiment: holdup assay; parameters: key: below the threshold = too weak to quantify, mostly under pKd 3.1 to 4; settings: plain residues with an end cap or a label only (N-terminal biotin on a linker: ado-ado)

| Binder | pKd |
| --- | --- |
| ARSAAASNYV [CLDN4, O14493] | below the threshold |

biological target: T2, PDZRN3_1, Q9UPQ7; experiment: holdup assay; parameters: key: below the threshold = too weak to quantify, mostly under pKd 3.1 to 4; settings: plain residues with an end cap or a label only (N-terminal biotin on a linker: ado-ado)

| Binder | pKd |
| --- | --- |
| ARSAAASNYV [CLDN4, O14493] | below the threshold |

biological target: FRMPD2_3, Q68DX3; experiment: holdup assay; parameters: key: below the threshold = too weak to quantify, mostly under pKd 3.1 to 4; settings: plain residues with an end cap or a label only (N-terminal biotin on a linker: ado-ado)
Sequence (Q68DX3 1073-1166): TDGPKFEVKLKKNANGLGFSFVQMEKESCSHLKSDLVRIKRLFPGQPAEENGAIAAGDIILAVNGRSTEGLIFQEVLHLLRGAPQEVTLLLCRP

| Binder | pKd |
| --- | --- |
| ARSAAASNYV [CLDN4, O14493] | below the threshold |

biological target: T3, LIN7B, Q9HAP6; experiment: holdup assay; parameters: key: below the threshold = too weak to quantify, mostly under pKd 3.1 to 4; settings: plain residues with an end cap or a label only (N-terminal biotin on a linker: ado-ado)

| Binder | pKd |
| --- | --- |
| ARSAAASNYV [CLDN4, O14493] | below the threshold |

biological target: NHERF4_4, Q86UT5; experiment: holdup assay; parameters: key: below the threshold = too weak to quantify, mostly under pKd 3.1 to 4; settings: plain residues with an end cap or a label only (N-terminal biotin on a linker: ado-ado)
Sequence (Q86UT5 464-550): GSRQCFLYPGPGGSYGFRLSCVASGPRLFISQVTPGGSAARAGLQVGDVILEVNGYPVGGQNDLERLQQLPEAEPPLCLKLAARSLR

| Binder | pKd |
| --- | --- |
| ARSAAASNYV [CLDN4, O14493] | 3.92 |

biological target: LDB3, O75112; experiment: holdup assay; parameters: key: below the threshold = too weak to quantify, mostly under pKd 3.1 to 4; settings: plain residues with an end cap or a label only (N-terminal biotin on a linker: ado-ado)
Sequence (O75112 1-94): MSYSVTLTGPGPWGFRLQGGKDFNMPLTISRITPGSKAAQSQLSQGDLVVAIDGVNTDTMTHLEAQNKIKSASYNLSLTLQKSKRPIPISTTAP

| Binder | pKd |
| --- | --- |
| ARSAAASNYV [CLDN4, O14493] | below the threshold |

biological target: T4, MPDZ_10, O75970; experiment: holdup assay; parameters: key: below the threshold = too weak to quantify, mostly under pKd 3.1 to 4; settings: plain residues with an end cap or a label only (N-terminal biotin on a linker: ado-ado)

| Binder | pKd |
| --- | --- |
| ARSAAASNYV [CLDN4, O14493] | below the threshold |

biological target: SCRIB_1, Q14160; experiment: holdup assay; parameters: key: below the threshold = too weak to quantify, mostly under pKd 3.1 to 4; settings: plain residues with an end cap or a label only (N-terminal biotin on a linker: ado-ado)
Sequence (Q14160 718-814): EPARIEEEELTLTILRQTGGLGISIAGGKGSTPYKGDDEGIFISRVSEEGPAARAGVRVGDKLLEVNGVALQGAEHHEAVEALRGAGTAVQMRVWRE

| Binder | pKd |
| --- | --- |
| ARSAAASNYV [CLDN4, O14493] | below the threshold |

biological target: T5, MPDZ_5, O75970; experiment: holdup assay; parameters: key: below the threshold = too weak to quantify, mostly under pKd 3.1 to 4; settings: plain residues with an end cap or a label only (N-terminal biotin on a linker: ado-ado)

| Binder | pKd |
| --- | --- |
| ARSAAASNYV [CLDN4, O14493] | below the threshold |

biological target: T6, RAPGEF6, Q8TEU7; experiment: holdup assay; parameters: key: below the threshold = too weak to quantify, mostly under pKd 3.1 to 4; settings: plain residues with an end cap or a label only (N-terminal biotin on a linker: ado-ado)

| Binder | pKd |
| --- | --- |
| ARSAAASNYV [CLDN4, O14493] | below the threshold |

biological target: Inadl_5, Q8NI35; experiment: holdup assay; parameters: key: below the threshold = too weak to quantify, mostly under pKd 3.1 to 4; settings: plain residues with an end cap or a label only (N-terminal biotin on a linker: ado-ado)
Sequence (Q8NI35 673-780): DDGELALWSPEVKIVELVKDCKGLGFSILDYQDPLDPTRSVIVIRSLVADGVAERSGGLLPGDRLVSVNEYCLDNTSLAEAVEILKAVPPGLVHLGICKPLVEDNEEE

| Binder | pKd |
| --- | --- |
| ARSAAASNYV [CLDN4, O14493] | 3.68 |

biological target: NHERF4_2, Q86UT5; experiment: holdup assay; parameters: key: below the threshold = too weak to quantify, mostly under pKd 3.1 to 4; settings: plain residues with an end cap or a label only (N-terminal biotin on a linker: ado-ado)
Sequence (Q86UT5 220-308): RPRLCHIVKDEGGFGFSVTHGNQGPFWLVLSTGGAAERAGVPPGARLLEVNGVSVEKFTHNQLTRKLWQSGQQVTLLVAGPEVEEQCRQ

| Binder | pKd |
| --- | --- |
| ARSAAASNYV [CLDN4, O14493] | below the threshold |

biological target: T7, DLG3_2, Q92796; experiment: holdup assay; parameters: key: below the threshold = too weak to quantify, mostly under pKd 3.1 to 4; settings: plain residues with an end cap or a label only (N-terminal biotin on a linker: ado-ado)

| Binder | pKd |
| --- | --- |
| ARSAAASNYV [CLDN4, O14493] | below the threshold |

biological target: T8, SIPA1L2, Q9P2F8; experiment: holdup assay; parameters: key: below the threshold = too weak to quantify, mostly under pKd 3.1 to 4; settings: plain residues with an end cap or a label only (N-terminal biotin on a linker: ado-ado)

| Binder | pKd |
| --- | --- |
| ARSAAASNYV [CLDN4, O14493] | 3.53 |

biological target: T9, DLG3_1, Q92796; experiment: holdup assay; parameters: key: below the threshold = too weak to quantify, mostly under pKd 3.1 to 4; settings: plain residues with an end cap or a label only (N-terminal biotin on a linker: ado-ado)

| Binder | pKd |
| --- | --- |
| ARSAAASNYV [CLDN4, O14493] | below the threshold |

biological target: Inadl_3, Q8NI35; experiment: holdup assay; parameters: key: below the threshold = too weak to quantify, mostly under pKd 3.1 to 4; settings: plain residues with an end cap or a label only (N-terminal biotin on a linker: ado-ado)
Sequence (Q8NI35 359-469): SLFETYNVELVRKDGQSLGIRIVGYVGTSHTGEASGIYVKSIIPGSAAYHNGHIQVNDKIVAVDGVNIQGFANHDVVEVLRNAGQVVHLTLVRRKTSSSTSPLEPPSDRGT

| Binder | pKd |
| --- | --- |
| ARSAAASNYV [CLDN4, O14493] | below the threshold |

biological target: DLG1_3, Q12959; experiment: holdup assay; parameters: key: below the threshold = too weak to quantify, mostly under pKd 3.1 to 4; settings: plain residues with an end cap or a label only (N-terminal biotin on a linker: ado-ado)
Sequence (Q12959 457-571): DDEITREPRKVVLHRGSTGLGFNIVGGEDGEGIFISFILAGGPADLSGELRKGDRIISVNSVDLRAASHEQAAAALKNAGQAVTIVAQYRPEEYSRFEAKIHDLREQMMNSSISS

| Binder | pKd |
| --- | --- |
| ARSAAASNYV [CLDN4, O14493] | below the threshold |

biological target: T10, SNTG2, Q9NY99; experiment: holdup assay; parameters: key: below the threshold = too weak to quantify, mostly under pKd 3.1 to 4; settings: plain residues with an end cap or a label only (N-terminal biotin on a linker: ado-ado)

| Binder | pKd |
| --- | --- |
| ARSAAASNYV [CLDN4, O14493] | below the threshold |

biological target: TJP1_3, Q07157; experiment: holdup assay; parameters: key: below the threshold = too weak to quantify, mostly under pKd 3.1 to 4; settings: plain residues with an end cap or a label only (N-terminal biotin on a linker: ado-ado)
Sequence (Q07157 416-512): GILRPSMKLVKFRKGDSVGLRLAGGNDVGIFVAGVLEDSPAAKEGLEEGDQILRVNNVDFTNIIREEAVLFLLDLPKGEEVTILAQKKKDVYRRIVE

| Binder | pKd |
| --- | --- |
| ARSAAASNYV [CLDN4, O14493] | below the threshold |

biological target: SNX27, Q96L92; experiment: holdup assay; parameters: key: below the threshold = too weak to quantify, mostly under pKd 3.1 to 4; settings: plain residues with an end cap or a label only (N-terminal biotin on a linker: ado-ado)

| Binder | pKd |
| --- | --- |
| ARSAAASNYV [CLDN4, O14493] | 3.53 |

biological target: T11, NHERF3_3, Q5T2W1; experiment: holdup assay; parameters: key: below the threshold = too weak to quantify, mostly under pKd 3.1 to 4; settings: plain residues with an end cap or a label only (N-terminal biotin on a linker: ado-ado)

| Binder | pKd |
| --- | --- |
| ARSAAASNYV [CLDN4, O14493] | below the threshold |

biological target: T12, DFNB31_1, Q9P202; experiment: holdup assay; parameters: key: below the threshold = too weak to quantify, mostly under pKd 3.1 to 4; settings: plain residues with an end cap or a label only (N-terminal biotin on a linker: ado-ado)

| Binder | pKd |
| --- | --- |
| ARSAAASNYV [CLDN4, O14493] | below the threshold |

biological target: AHNAK1, Q09666; experiment: holdup assay; parameters: key: below the threshold = too weak to quantify, mostly under pKd 3.1 to 4; settings: plain residues with an end cap or a label only (N-terminal biotin on a linker: ado-ado)
Sequence (Q09666 4-100): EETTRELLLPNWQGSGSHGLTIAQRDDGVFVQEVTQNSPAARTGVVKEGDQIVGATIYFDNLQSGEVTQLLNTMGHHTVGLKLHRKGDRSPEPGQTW

| Binder | pKd |
| --- | --- |
| ARSAAASNYV [CLDN4, O14493] | below the threshold |
